Data published in paper PMC9482650, “Quantitative fragmentomics allow affinity mapping of interactomes” (Nature Communications, 2022).

What was measured:
Assay in all cases: holdup assay
Design in all cases: key: below the threshold = too weak to quantify, mostly under pKd 3.1 to 4
MPDZ_12, O75970 = target: T1, MPDZ_12, O75970
T1 sequence (O75970 1857-1958, limits assumed, looked up): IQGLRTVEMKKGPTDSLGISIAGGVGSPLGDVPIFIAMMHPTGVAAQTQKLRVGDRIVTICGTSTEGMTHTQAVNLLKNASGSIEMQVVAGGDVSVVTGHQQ

Inadl_9, Q8NI35 = target: Inadl_9, Q8NI35
FRMPD4, Q14CM0 = target: FRMPD4, Q14CM0
RAPGEF6, Q8TEU7 = target: T2, RAPGEF6, Q8TEU7
T2 sequence (Q8TEU7 525-625, limits assumed, looked up): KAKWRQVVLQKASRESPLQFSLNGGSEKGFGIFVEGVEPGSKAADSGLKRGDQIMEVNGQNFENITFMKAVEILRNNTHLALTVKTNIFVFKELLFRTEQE

DLG2_2, Q15700 = target: DLG2_2, Q15700
LNX1_2, Q8TBB1 = target: LNX1_2, Q8TBB1
DLG4_2, P78352 = target: DLG4_2, P78352
GRIP1_5, Q9Y3R0 = target: T3, GRIP1_5, Q9Y3R0
T3 sequence (Q9Y3R0 568-668, limits assumed, looked up): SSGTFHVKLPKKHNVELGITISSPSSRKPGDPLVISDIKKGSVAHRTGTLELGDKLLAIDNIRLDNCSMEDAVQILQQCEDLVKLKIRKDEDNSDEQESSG

Inadl_3, Q8NI35 = target: Inadl_3, Q8NI35
DLG1_1, Q12959 = target: DLG1_1, Q12959
APBA3_1, O96018 = target: T4, APBA3_1, O96018
T4 sequence (O96018 389-490, limits assumed, looked up): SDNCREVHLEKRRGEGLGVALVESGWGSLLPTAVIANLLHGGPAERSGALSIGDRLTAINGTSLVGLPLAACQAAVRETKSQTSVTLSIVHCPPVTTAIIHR

Inadl_1, Q8NI35 = target: Inadl_1, Q8NI35
PDZRN4_1, Q6ZMN7 = target: PDZRN4_1, Q6ZMN7
DLG4_3, P78352 = target: DLG4_3, P78352
AHNAK1, Q09666 = target: AHNAK1, Q09666
SHANK1, Q9Y566 = target: T5, SHANK1, Q9Y566
T5 sequence (Q9Y566 658-767, limits assumed, looked up): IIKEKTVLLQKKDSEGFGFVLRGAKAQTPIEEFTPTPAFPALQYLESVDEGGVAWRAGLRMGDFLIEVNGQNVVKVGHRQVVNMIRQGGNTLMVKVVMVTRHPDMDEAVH

LIMK2, P53671 = target: LIMK2, P53671
LNX1_1, Q8TBB1 = target: LNX1_1, Q8TBB1
APBA2_2, Q99767 = target: T6, APBA2_2, Q99767
T6 sequence (Q99767 654-744, limits assumed, looked up): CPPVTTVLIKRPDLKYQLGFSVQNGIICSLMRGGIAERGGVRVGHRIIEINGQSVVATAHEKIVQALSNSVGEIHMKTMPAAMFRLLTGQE

LNX2_2, Q8N448 = target: T7, LNX2_2, Q8N448
T7 sequence (Q8N448 334-432, limits assumed, looked up): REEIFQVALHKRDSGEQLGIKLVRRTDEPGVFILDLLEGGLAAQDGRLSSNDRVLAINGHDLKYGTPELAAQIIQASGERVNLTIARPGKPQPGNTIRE

MAGI2_5, Q86UL8 = target: MAGI2_5, Q86UL8
MAGI2_6, Q86UL8 = target: MAGI2_6, Q86UL8
PTPN3, P26045 = target: PTPN3, P26045
PDZD7_3, Q9H5P4 = target: T8, PDZD7_3, Q9H5P4
T8 sequence (Q9H5P4 857-944, limits assumed, looked up): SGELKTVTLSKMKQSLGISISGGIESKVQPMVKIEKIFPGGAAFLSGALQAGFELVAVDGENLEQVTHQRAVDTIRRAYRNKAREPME

NHERF3_4, Q5T2W1 = target: T9, NHERF3_4, Q5T2W1
T9 sequence (Q5T2W1 373-468, limits assumed, looked up): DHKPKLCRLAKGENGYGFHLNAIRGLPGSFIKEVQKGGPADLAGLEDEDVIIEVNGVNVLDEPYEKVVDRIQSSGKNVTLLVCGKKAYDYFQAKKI

HTRA4, P83105 = target: T10, HTRA4, P83105
T10 sequence (P83105 378-476, limits assumed, looked up): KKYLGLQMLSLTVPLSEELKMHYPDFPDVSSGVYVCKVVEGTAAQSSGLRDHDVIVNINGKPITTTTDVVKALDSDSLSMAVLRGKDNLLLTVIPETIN

PTPN13_1, Q12923 = target: T11, PTPN13_1, Q12923
T11 sequence (Q12923 1088-1188, limits assumed, looked up): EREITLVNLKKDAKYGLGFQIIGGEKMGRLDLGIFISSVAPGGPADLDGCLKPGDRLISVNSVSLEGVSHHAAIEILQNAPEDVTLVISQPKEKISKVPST

[1] = plain residues with an end cap or a label only (N-terminal biotin on a linker: ado-ado)
[2] = plain residues with an end cap or a label only (N-terminal biotin on a linker: ahx)

Sequence of LIMK2, P53671 (P53671 143-248): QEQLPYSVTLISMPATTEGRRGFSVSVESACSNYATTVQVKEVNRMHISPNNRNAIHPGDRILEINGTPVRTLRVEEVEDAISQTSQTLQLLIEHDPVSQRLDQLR
Sequence of Inadl_9, Q8NI35 (Q8NI35 1530-1615): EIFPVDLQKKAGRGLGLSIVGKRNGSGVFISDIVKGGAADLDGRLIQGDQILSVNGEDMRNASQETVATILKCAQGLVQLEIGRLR
Sequence of DLG2_2, Q15700 (Q15700 189-283): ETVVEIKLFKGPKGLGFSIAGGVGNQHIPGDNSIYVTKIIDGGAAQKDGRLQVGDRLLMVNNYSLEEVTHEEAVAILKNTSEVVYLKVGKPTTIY
Sequence of LNX1_1, Q8TBB1 (Q8TBB1 261-371): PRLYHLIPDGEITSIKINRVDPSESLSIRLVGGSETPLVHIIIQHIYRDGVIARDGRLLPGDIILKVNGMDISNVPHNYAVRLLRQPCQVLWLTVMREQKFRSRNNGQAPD
Sequence of FRMPD4, Q14CM0 (Q14CM0 67-160): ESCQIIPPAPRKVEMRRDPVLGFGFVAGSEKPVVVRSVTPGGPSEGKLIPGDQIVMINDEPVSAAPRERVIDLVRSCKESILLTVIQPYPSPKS
Sequence of MAGI2_5, Q86UL8 (Q86UL8 915-1017): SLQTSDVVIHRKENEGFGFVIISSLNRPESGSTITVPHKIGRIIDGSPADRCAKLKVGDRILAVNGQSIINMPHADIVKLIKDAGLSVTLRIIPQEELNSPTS
Sequence of Inadl_3, Q8NI35 (Q8NI35 359-469): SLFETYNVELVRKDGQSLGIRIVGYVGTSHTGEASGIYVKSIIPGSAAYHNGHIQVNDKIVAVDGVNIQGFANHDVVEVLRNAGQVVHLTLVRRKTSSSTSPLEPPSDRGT
Sequence of LNX1_2, Q8TBB1 (Q8TBB1 371-470): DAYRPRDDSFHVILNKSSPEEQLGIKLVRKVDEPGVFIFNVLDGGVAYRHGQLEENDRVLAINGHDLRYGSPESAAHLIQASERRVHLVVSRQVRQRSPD
Sequence of PDZRN4_1, Q6ZMN7 (Q6ZMN7 213-318): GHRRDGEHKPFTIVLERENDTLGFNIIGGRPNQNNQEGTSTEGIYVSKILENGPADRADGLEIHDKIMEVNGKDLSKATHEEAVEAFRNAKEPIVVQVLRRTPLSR
Sequence of Inadl_1, Q8NI35 (Q8NI35 113-229): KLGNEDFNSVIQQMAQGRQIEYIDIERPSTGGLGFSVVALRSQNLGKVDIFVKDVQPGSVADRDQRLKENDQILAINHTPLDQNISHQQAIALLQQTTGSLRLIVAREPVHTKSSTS
Sequence of DLG4_3, P78352 (P78352 306-403): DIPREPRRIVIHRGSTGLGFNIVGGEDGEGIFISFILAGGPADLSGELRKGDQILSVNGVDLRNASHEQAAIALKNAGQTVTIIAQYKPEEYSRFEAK
Sequence of AHNAK1, Q09666 (Q09666 4-100): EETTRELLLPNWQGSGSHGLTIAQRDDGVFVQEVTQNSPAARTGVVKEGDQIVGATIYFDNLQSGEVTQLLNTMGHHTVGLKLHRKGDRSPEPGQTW
Sequence of MAGI2_6, Q86UL8 (Q86UL8 1141-1229): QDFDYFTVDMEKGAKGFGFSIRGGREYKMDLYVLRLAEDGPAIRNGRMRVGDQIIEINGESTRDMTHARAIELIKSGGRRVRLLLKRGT
Sequence of PTPN3, P26045 (P26045 505-587): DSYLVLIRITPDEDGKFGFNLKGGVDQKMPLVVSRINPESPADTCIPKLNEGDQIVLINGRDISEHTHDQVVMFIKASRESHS
Sequence of DLG4_2, P78352 (P78352 155-259): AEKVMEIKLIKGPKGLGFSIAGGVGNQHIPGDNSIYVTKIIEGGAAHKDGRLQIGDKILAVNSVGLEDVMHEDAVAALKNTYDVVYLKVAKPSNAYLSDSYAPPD

EIPAQSPTCV [FZD10, Q9ULW2]
pKd (MPDZ_12, O75970; [1]): below the threshold
pKd (Inadl_9, Q8NI35; [1]): 4.6
pKd (FRMPD4, Q14CM0; [1]): 3.75
pKd (RAPGEF6, Q8TEU7; [1]): below the threshold
pKd (DLG2_2, Q15700; [1]): 3.89
pKd (LNX1_2, Q8TBB1; [1]): 4.13
pKd (DLG4_2, P78352; [1]): 4.11
pKd (GRIP1_5, Q9Y3R0; [1]): below the threshold
pKd (Inadl_3, Q8NI35; [1]): 3.62
pKd (DLG1_1, Q12959; [1]): 3.85
pKd (APBA3_1, O96018; [1]): 3.57
pKd (Inadl_1, Q8NI35; [1]): 3.58
pKd (PDZRN4_1, Q6ZMN7; [1]): 3.63
pKd (DLG4_3, P78352; [1]): below the threshold
pKd (AHNAK1, Q09666; [1]): 3.57
pKd (SHANK1, Q9Y566; [1]): 3.62
pKd (LIMK2, P53671; [1]): below the threshold
pKd (LNX1_1, Q8TBB1; [1]): below the threshold
pKd (APBA2_2, Q99767; [1]): 3.63
pKd (LNX2_2, Q8N448; [1]): 5.04
pKd (MAGI2_5, Q86UL8; [1]): 3.67
pKd (MAGI2_6, Q86UL8; [1]): 3.85
pKd (PTPN3, P26045; [1]): 3.77
pKd (PDZD7_3, Q9H5P4; [1]): 4.3
pKd (NHERF3_4, Q5T2W1; [1]): below the threshold
pKd (HTRA4, P83105; [1]): 4.29
pKd (PTPN13_1, Q12923; [1]): 3.72

QPRTWLQSPV [RTKN, Q9BST9]
pKd (MPDZ_12, O75970; [2]): below the threshold
pKd (Inadl_9, Q8NI35; [2]): below the threshold
pKd (FRMPD4, Q14CM0; [2]): below the threshold
pKd (RAPGEF6, Q8TEU7; [2]): below the threshold
pKd (DLG2_2, Q15700; [2]): 4.71
pKd (LNX1_2, Q8TBB1; [2]): below the threshold
pKd (DLG4_2, P78352; [2]): 4.27
pKd (GRIP1_5, Q9Y3R0; [2]): below the threshold
pKd (Inadl_3, Q8NI35; [2]): below the threshold
pKd (DLG1_1, Q12959; [2]): 3.74
pKd (APBA3_1, O96018; [2]): below the threshold
pKd (Inadl_1, Q8NI35; [2]): below the threshold
pKd (PDZRN4_1, Q6ZMN7; [2]): below the threshold
pKd (DLG4_3, P78352; [2]): 4.35
pKd (AHNAK1, Q09666; [2]): below the threshold
pKd (SHANK1, Q9Y566; [2]): 3.74
pKd (LIMK2, P53671; [2]): below the threshold
pKd (LNX1_1, Q8TBB1; [2]): below the threshold
pKd (APBA2_2, Q99767; [2]): below the threshold
pKd (LNX2_2, Q8N448; [2]): below the threshold
pKd (MAGI2_5, Q86UL8; [2]): 4.33
pKd (MAGI2_6, Q86UL8; [2]): below the threshold
pKd (PTPN3, P26045; [2]): 3.78
pKd (PDZD7_3, Q9H5P4; [2]): below the threshold
pKd (NHERF3_4, Q5T2W1; [2]): below the threshold
pKd (HTRA4, P83105; [2]): below the threshold
pKd (PTPN13_1, Q12923; [2]): below the threshold

TISFTQTSQF [SLC1A1, P43005]
pKd (MPDZ_12, O75970; [1]): below the threshold
pKd (Inadl_9, Q8NI35; [1]): below the threshold
pKd (FRMPD4, Q14CM0; [1]): below the threshold
pKd (RAPGEF6, Q8TEU7; [1]): below the threshold
pKd (DLG2_2, Q15700; [1]): below the threshold
pKd (LNX1_2, Q8TBB1; [1]): below the threshold
pKd (DLG4_2, P78352; [1]): below the threshold
pKd (GRIP1_5, Q9Y3R0; [1]): below the threshold
pKd (Inadl_3, Q8NI35; [1]): below the threshold
pKd (DLG1_1, Q12959; [1]): below the threshold
pKd (APBA3_1, O96018; [1]): below the threshold
pKd (Inadl_1, Q8NI35; [1]): below the threshold
pKd (PDZRN4_1, Q6ZMN7; [1]): below the threshold
pKd (DLG4_3, P78352; [1]): below the threshold
pKd (AHNAK1, Q09666; [1]): below the threshold
pKd (SHANK1, Q9Y566; [1]): 4.61
pKd (LIMK2, P53671; [1]): below the threshold
pKd (LNX1_1, Q8TBB1; [1]): below the threshold
pKd (APBA2_2, Q99767; [1]): below the threshold
pKd (LNX2_2, Q8N448; [1]): below the threshold
pKd (MAGI2_5, Q86UL8; [1]): 4.29
pKd (MAGI2_6, Q86UL8; [1]): below the threshold
pKd (PTPN3, P26045; [1]): 4.09
pKd (PDZD7_3, Q9H5P4; [1]): below the threshold
pKd (NHERF3_4, Q5T2W1; [1]): 4.41
pKd (HTRA4, P83105; [1]): below the threshold
pKd (PTPN13_1, Q12923; [1]): below the threshold
